Assay results taken from article PMC9100253 (International Journal of Molecular Sciences, 2022).

Assays:
CTX-M-15 [1] = target: T1, CTX-M-15 (Escherichia coli, UniProt A0A5R8T042, S73A); experiment: biochemical
T1 construct: gene bla

[2] = tested on: O=C(Cc1cccs1)N[C@@H]1C(=O)N2C(C(=O)O)=C(/C=C/c3ccc([N+](=O)[O-])cc3[N+](=O)[O-])CS[C@H]12; experiment: purified protein; format: biochemical, Escherichia coli; conditions: PBS pH 7.4, 10 nM enzyme
[3] = tested on: CO/N=C(\C(=O)N[C@@H]1C(=O)N2C(C(=O)O)=C(CSC(=O)c3ccco3)CS[C@H]12)c1csc(N)n1; experiment: purified protein; format: biochemical, Escherichia coli; conditions: PBS pH 7.4, 10 nM enzyme
[4] = tested on: CO/N=C(\C(=O)N[C@@H]1C(=O)N2C(C(=O)O)=C(CS)CS[C@H]12)c1csc(N)n1; experiment: purified protein; format: biochemical, Escherichia coli; conditions: PBS pH 7.4, 10 nM enzyme, acyl-enzyme structure, covalent
[5] = tested on: CC1(C)S[C@@H]2[C@H](NC(=O)[C@H](N)c3ccccc3)C(=O)N2[C@H]1C(=O)O; experiment: purified protein; format: biochemical, Escherichia coli; conditions: PBS pH 7.4, 10 nM enzyme, acyl-enzyme structure, covalent
CTX-M-15 [6] = target: T2, CTX-M-15 (Escherichia coli, UniProt A0A5R8T042); experiment: inhibition of ceftiofur hydrolysis, absorbance; format: biochemical
T2 construct: gene bla; blaCTX-M-15 in pET200 TOPO, E. coli BL21(DE3); DEAE and hydroxyapatite purification; three molecules per asymmetric unit

**Q.** How did the Kd (CTX-M-15 [1]) turn out when `CO/N=C(\C(=O)N[C@@H]1C(=O)N2C(C(=O)O)=C(CS)CS[C@H]12)c1csc(N)n1` [desfuroylceftiofur] was run?
**A.** Its Kd is 10.7 µM.

**Q.** `CC1(C)S[C@@H]2[C@H](NC(=O)[C@H](N)c3ccccc3)C(=O)N2[C@H]1C(=O)O` [ampicillin] was tested. Which Kd (CTX-M-15 [1]) did it give?
**A.** Its Kd is 28.8 µM.

**Q.** With CTX-M-15 (Escherichia coli O25b:H4) as the compound, how does the Km [2] read?
**A.** Its Km is 1047.0 ± 75.8 µM.

**Q.** What about the Vmax [2] of the same compound?
**A.** The Vmax was 203 µmol/min.

**Q.** What about the Km [3] of the same compound?
**A.** Its Km is 330.0 ± 14.1 µM.

**Q.** And the Vmax [3]?
**A.** The Vmax was 188 µmol/min.

**Q.** What about the kcat [3] of the same compound?
**A.** Its kcat is 314 ± 13 s⁻¹.

**Q.** What about the kcat/Km [3] of the same compound?
**A.** Its kcat/Km is 950000 ± 10000 M⁻¹ s⁻¹.

**Q.** And the Km [4]?
**A.** Its Km is 141.2 ± 11.2 µM.

**Q.** What about the Vmax [4] of the same compound?
**A.** Its Vmax is 293 µmol/min.

**Q.** And the kcat [4]?
**A.** Its kcat is 490 ± 16.2 s⁻¹.

**Q.** And the kcat/Km [4]?
**A.** The kcat/Km was 3.46e+06 ± 140000 M⁻¹ s⁻¹.

**Q.** What about the Km [5] of the same compound?
**A.** Its Km is 197.8 ± 13.0 µM.

**Q.** What about the Vmax [5] of the same compound?
**A.** The Vmax was 60.6 µmol/min.

**Q.** What about the kcat [5] of the same compound?
**A.** The kcat was 102 ± 5.6 s⁻¹.

**Q.** What about the kcat/Km [5] of the same compound?
**A.** The kcat/Km was 520000 ± 10000 M⁻¹ s⁻¹.

**Q.** How did the Ki (CTX-M-15 [6]) turn out when `O=C(O)[C@H]1/C(=C/CO)O[C@@H]2CC(=O)N21` [clavulanic acid] was run?
**A.** Its Ki is 0.022 ± 0.007 µM.

**Q.** And the Kd (CTX-M-15 [1])?
**A.** Its Kd is 289 µM.

**Q.** How did the Kd (CTX-M-15 [1]) turn out when `O=C(Cc1cccs1)N[C@@H]1C(=O)N2C(C(=O)O)=C(/C=C/c3ccc([N+](=O)[O-])cc3[N+](=O)[O-])CS[C@H]12` [nitrocefin] was run?
**A.** The Kd was 71.3 µM.

**Q.** Which Kd (CTX-M-15 [1]) does the source give for `CO/N=C(\C(=O)N[C@@H]1C(=O)N2C(C(=O)O)=C(CSC(=O)c3ccco3)CS[C@H]12)c1csc(N)n1` [ceftiofur] here?
**A.** The Kd was 38.2 µM.
